Key:
[1] = biological target: His-SNAP-Mtb Ku (Mycobacterium tuberculosis) (UniProt P9WKD9); assay: SEC
[2] = biological target: Mtb LigD WT (Mycobacterium tuberculosis, UniProt P9WNV3 1-759); assay: […]
Mtb LigD WT, sequence (P9WNV3 whole entry): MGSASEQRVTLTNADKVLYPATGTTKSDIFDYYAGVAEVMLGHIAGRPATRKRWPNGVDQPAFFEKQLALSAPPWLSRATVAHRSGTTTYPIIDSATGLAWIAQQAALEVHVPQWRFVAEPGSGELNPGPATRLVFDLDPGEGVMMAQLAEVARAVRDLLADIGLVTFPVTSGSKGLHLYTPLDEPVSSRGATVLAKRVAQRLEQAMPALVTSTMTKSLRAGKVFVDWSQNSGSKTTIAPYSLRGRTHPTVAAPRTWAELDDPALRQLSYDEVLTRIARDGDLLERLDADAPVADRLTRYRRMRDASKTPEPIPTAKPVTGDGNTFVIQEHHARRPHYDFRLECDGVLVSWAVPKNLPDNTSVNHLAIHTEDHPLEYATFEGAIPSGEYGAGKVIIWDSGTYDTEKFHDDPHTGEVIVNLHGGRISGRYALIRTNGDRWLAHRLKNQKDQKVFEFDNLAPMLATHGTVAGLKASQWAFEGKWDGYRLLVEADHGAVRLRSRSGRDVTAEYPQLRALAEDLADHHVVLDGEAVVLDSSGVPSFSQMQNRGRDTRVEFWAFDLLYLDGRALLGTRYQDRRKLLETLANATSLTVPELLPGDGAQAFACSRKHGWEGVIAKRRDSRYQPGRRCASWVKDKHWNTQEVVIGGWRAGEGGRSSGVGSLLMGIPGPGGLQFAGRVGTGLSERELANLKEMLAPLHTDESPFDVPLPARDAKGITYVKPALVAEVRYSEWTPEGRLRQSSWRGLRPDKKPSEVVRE

Work on “His-SNAP-Mtb Ku (from UniProt P9WKD9 1-273) (natural protein)” yielded a stoichiometry N [1] of 2.

B1: His-SNAP-Mtb Ku (natural protein)
chain: MRAIWTGSIAFGLVNVPVKVYSATADHDIRFHQVHAKDNGRIRYKRVCEACGEVVDYRDLARAYESGDGQMVAITDDDIASLPEERSREIEVLEFVPAADVDPMMFDRSYFLEPDSKSSKSYVLLAKTLAETDRMAIVHFTLRNKTRLAALRVKDFGKREVMMVHTLLWPDEIRDPDFPVLDQKVEIKPAELKMAGQVVDSMADDFNPDRYHDTYQEQLQELIDTKLEGGQAFTAEDQPRLLDEPEDVSDLLAKLEASVKARSKANSNVPTPP
B1: binds [2].

From paper doi:10.64898/2025.12.16.694593 (bioRxiv, 2025)
